Earlier results on two substances are cited in publication PMC5488749.

Read-outs that look alike come from different tables or passages of the source.

The term Kd denotes the equilibrium constant for the complex coming apart.

The target of series [1] is Caspr4 C-terminal peptide (Homo sapiens) (UniProt Q9C0A0).
In series [2] the target is neurexin1 C-terminal peptide (Homo sapiens) (UniProt Q9ULB1).
The target of series [3] is Caspr4 C-terminal peptide (Homo sapiens) (UniProt Q9C0A0). The source holds these as a separate data set.
In series [4] the target is neurexin1 C-terminal peptide (Homo sapiens) (UniProt Q9ULB1). The source holds these as a separate data set.

Sequence of UniProt Q9C0A0 (Q9C0A0 whole entry, looked up, tested part not stated): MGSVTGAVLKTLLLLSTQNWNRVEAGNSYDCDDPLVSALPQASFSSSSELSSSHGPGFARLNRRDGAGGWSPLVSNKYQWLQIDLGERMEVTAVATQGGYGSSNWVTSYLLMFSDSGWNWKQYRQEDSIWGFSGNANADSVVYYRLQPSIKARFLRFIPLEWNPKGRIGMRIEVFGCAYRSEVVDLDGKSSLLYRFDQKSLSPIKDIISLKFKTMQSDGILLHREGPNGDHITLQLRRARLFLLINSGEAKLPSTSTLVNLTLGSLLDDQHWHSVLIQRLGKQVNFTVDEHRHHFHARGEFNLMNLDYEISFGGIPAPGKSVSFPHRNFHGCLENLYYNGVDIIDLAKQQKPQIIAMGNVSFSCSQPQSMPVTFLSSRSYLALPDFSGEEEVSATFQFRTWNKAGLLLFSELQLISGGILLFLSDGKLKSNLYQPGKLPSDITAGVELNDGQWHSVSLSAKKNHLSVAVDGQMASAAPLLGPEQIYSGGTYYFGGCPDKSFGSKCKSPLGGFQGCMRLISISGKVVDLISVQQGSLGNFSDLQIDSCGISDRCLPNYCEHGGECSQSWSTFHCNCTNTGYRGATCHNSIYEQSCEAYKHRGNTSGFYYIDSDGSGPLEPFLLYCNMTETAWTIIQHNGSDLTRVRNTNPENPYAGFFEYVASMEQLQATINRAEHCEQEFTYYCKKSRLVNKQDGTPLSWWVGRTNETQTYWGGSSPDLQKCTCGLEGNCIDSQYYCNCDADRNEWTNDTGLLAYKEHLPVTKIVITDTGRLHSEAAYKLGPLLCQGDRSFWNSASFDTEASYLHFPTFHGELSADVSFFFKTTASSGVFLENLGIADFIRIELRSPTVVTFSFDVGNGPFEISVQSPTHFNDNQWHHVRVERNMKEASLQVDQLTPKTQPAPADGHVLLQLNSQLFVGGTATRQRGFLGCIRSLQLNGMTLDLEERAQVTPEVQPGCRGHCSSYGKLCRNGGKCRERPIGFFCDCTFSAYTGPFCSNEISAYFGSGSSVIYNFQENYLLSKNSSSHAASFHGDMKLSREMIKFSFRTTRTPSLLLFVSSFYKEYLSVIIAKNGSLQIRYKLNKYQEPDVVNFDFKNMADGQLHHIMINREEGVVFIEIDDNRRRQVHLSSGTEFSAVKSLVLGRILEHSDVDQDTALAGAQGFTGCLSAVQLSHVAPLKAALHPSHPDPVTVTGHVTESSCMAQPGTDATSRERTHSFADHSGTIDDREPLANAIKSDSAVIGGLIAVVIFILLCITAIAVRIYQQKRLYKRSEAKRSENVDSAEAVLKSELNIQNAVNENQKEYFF
Sequence of UniProt Q9ULB1 (Q9ULB1 whole entry, looked up, tested part not stated): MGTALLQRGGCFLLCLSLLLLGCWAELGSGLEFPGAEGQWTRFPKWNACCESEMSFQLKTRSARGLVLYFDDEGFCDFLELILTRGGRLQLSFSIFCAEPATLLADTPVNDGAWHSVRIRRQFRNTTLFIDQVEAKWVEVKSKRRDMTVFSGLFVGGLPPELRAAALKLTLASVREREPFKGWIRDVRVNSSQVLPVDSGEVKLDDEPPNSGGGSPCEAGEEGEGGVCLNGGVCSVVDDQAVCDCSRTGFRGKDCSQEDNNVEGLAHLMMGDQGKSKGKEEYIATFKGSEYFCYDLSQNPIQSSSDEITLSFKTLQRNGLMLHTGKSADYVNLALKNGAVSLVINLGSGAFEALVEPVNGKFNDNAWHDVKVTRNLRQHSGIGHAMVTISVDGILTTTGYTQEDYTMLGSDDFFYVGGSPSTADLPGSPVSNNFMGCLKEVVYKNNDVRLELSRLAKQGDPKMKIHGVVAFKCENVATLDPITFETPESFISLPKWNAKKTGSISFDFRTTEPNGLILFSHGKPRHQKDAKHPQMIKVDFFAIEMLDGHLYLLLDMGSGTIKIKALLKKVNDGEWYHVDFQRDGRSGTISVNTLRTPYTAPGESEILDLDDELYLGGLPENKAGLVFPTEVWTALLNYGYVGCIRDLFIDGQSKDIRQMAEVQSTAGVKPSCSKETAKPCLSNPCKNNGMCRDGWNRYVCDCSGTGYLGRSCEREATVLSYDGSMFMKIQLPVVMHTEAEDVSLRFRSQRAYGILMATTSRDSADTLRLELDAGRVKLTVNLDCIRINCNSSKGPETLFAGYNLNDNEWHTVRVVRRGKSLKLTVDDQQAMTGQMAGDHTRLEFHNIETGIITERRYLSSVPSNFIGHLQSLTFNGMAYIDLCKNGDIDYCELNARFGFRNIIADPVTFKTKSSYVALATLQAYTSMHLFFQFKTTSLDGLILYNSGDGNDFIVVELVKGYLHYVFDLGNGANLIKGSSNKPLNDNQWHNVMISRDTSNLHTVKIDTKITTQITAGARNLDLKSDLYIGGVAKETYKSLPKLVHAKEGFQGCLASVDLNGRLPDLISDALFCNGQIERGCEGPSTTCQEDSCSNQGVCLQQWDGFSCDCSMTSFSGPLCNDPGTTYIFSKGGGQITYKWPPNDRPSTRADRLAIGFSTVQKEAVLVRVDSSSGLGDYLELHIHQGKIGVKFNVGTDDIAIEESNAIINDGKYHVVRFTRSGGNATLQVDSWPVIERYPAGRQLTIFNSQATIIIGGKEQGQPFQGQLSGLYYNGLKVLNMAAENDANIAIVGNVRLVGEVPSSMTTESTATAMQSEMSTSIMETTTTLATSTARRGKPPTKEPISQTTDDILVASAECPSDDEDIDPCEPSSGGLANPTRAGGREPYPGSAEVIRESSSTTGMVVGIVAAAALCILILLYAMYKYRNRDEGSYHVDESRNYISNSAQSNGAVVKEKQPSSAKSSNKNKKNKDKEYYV

Tiam1 PDZ (from UniProt Q13009): the Kd in series [1] was 18 µM; in series [2], 2400 µM.
On to Tiam2 PDZ (from UniProt Q8IVF5), for which the Kd in series [3] was 3 µM; in series [4], 5 µM.
